Experimental data published in IntAct's records for PubMed 20562859.

Columns and labels:
fnip1_human FNIP1 = biological target: T1, fnip1_human FNIP1 (UniProt Q8TF40)
T1 sequence: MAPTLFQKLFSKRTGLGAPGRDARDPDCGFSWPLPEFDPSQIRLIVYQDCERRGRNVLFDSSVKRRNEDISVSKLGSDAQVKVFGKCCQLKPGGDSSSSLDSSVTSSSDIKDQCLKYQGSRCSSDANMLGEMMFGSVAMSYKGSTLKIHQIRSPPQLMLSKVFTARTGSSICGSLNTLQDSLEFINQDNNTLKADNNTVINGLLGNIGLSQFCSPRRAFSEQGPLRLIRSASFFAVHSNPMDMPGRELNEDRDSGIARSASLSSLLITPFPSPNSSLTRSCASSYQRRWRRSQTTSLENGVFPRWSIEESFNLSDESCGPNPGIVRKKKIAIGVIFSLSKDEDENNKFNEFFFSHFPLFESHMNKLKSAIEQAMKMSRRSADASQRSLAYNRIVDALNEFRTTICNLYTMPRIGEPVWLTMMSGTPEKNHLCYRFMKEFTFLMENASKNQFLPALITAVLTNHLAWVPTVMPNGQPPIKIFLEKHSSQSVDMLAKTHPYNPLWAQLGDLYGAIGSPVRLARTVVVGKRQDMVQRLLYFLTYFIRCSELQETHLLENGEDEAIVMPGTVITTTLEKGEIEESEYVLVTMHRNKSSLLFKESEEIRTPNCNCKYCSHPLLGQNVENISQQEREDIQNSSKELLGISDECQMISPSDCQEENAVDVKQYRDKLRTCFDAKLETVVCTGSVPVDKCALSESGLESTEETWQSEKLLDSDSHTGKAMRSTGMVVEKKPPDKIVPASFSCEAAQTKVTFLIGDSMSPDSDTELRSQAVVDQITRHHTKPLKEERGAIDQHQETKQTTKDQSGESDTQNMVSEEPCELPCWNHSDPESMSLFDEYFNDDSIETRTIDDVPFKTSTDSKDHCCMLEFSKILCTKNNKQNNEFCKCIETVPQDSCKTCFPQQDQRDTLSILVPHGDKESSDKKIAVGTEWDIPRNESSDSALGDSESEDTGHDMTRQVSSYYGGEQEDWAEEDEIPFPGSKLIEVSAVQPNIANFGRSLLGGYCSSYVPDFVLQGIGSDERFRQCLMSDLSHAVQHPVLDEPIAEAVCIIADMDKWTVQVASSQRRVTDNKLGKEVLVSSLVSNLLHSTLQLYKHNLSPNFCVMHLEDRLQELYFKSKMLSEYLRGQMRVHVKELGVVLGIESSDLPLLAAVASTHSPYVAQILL

daaf4_human DNAAF4 = biological target: T2, daaf4_human DNAAF4 (UniProt Q8WXU2)
T2 sequence: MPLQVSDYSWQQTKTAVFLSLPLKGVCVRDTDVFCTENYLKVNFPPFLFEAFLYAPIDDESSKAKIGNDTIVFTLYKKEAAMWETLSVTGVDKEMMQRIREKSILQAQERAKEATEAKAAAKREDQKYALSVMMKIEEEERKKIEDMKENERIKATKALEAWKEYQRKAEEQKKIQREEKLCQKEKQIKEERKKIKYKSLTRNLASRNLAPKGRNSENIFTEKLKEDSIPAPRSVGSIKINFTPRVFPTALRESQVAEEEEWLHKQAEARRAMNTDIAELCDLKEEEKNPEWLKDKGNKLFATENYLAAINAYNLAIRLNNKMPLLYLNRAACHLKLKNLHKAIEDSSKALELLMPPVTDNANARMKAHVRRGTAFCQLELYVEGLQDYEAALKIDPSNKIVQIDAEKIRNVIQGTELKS

fyco1_human FYCO1 = biological target: T3, fyco1_human FYCO1 (UniProt Q9BQS8)
T3 sequence: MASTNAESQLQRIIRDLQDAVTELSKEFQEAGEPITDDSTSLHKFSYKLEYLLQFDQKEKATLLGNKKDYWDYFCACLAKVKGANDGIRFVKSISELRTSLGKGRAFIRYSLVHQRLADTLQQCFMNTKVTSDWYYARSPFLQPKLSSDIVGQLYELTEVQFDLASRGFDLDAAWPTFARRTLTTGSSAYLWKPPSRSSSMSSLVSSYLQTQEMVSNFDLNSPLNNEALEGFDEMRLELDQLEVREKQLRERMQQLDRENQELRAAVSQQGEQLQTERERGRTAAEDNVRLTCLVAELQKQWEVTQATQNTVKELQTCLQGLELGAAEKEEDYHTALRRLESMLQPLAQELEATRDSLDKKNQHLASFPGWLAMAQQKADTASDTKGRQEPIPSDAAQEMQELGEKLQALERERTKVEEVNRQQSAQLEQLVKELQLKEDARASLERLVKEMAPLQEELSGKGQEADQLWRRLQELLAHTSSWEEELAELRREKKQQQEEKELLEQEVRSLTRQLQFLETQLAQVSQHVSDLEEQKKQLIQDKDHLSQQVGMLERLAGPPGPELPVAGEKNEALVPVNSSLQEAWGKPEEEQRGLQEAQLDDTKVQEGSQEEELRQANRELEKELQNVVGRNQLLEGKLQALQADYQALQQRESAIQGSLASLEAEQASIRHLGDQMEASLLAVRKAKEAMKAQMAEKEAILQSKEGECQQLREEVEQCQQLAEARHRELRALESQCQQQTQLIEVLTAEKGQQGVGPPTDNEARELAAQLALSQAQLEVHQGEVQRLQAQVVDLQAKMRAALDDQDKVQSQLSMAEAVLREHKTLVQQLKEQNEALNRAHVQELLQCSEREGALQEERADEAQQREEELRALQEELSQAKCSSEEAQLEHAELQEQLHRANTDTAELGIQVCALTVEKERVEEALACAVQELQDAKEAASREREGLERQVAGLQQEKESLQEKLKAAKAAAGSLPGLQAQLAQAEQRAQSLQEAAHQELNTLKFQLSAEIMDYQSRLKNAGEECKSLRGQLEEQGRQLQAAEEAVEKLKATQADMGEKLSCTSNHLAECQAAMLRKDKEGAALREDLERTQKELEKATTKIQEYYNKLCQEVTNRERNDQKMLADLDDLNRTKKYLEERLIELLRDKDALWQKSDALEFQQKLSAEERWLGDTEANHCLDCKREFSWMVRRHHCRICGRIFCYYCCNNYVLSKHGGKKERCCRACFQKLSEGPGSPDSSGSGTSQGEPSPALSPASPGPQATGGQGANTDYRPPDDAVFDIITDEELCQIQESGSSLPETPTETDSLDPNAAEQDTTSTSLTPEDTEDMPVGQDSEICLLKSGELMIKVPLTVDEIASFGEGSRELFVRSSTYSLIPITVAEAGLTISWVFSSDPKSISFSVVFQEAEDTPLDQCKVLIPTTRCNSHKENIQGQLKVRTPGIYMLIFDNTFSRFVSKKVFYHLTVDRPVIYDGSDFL

effect of a mutation on the interaction (fnip1_human FNIP1) | effect of a mutation on the interaction (daaf4_human DNAAF4) | effect of a mutation on the interaction (fyco1_human FYCO1) | Substance
increasing interaction | – | – | Microtubule-associated protein 1 light chain 3 beta (Homo sapiens) (from UniProt Q9GZQ8) F52A;L53A
– | decreasing interaction | decreasing interaction | Microtubule-associated protein 1 light chain 3 beta (Homo sapiens) (from UniProt Q9GZQ8) R69A
